Laboratory results from patent publication WO1995025167A1.

Key:
[1] = target: EGFR on EGFR-bearing tumor cells (human) (UniProt P00533); assay: flow cytometry, crude bacterial supernatant on A431 cells, positive control
[2] = target: EGFR on EGFR-bearing tumor cells (human) (UniProt P00533); assay: flow cytometry, crude bacterial supernatant on HT29 cells, positive control
[3] = target: EGFR on EGFR-bearing tumor cells (human) (UniProt P00533); assay: flow cytometry, crude bacterial supernatant on MDA MB 231 cells, positive control

mean fluorescence (cytometric analysis) (arbitrary fluorescence units) [1]: 85.5
mean fluorescence (cytometric analysis) (arbitrary fluorescence units) [2]: 2.5
mean fluorescence (cytometric analysis) (arbitrary fluorescence units) [3]: 21.3
Substance: scFv derived from MAb 425
